The results in this text go back to article PMC8302766.

For orientation: Kd means the concentration at which binding is half-saturated.

Holding throughout (conditions): domain or fragment, No outside chemistry for unlabelled SAXS/AUC samples. Limits are not given, convention is residues 186-320 of short isoform A1-A (isoform B insert 252-303 absent). The hexapeptide 259-264 (311-316 in P09651) is taken as deleted because the printed 7.5 mg/mL = 0.598 mM gives about 12.54 kDa, which fits the delta-hexa form plus an assumed N-terminal GS cleavage scar (about 12.53 kDa), modification not given

The target in assay [1] is low-complexity domain of hnRNPA1 (A1-LCD). Nature of the assay: AUC; isodesmic model, 50 mM NaCl.
For assay [2] the target is unchanged. Kind of assay: AUC; two-step isodesmic model, KD1 (first step), 50 mM NaCl.
Assay [3] shares this target. Kind of assay: AUC; two-step isodesmic model, KD2 (later steps), 50 mM NaCl.

B1: low-complexity domain of hnRNPA1 (A1-LCD) (protein)
chain: MASASSSQRGRSGSGNFGGGRGGGFGGNDNFGRGGNFSGRGGFGGSRGGGGYGGSGDGYNGFGNDGSNFGGGGNYNNQSSNFGPMKGGNFGGRSSGPYGGGGQYFAKPRNQGGYGGSSSSSSYGSGRRF
Consider B1, for which the values for the Kd in assay [1], in assay [2] and in assay [3] were 3000 µM, 5400 µM and 2200 µM, respectively.
